# Article PMC3305377, “Insights into the structure and activity of prototype foamy virus RNase H”
# B1: 24/40-mer DNA/RNA primer/template (DNA:RNA)
# RNA: CUAAUUCCGCUUUCCCCUCUCCUGGUGAUCCUUUCCAUCC
# DNA: ATCACCAGGAGAGGGGAAAGCGGA
# Molecular target: PFV PR-RT (protease-reverse transcriptase) (prototype foamy virus, UniProt P14350 1-751)
# Experiment: fluorescence anisotropy; 10 mM EDTA, no Mg2+; 5 nM substrate; 50 mM Tris/HCl pH 8.0, 80 mM KCl, 10 mM EDTA, 0.5 mM DTT, 25 C
# Details: protein: recombinant; label: 5'-DY647 on RNA; 24 bp hybrid; RNA template overhangs 5' 5 nt and 3' 11 nt
binder,measurement,value
B1,Kd,9.1 ± 1.7 nM
